Experimental data: PMC5342242, “Altering the N-terminal arms of the polymerase manager protein UmuD modulates protein interactions” (PLoS ONE, 2017)
Where a chain is given by its changes, count along the chain named. In names and notes the source's numbering stands.

B1: UmuD 3A (natural protein, E. coli, UniProt P0AG11 1-139, looked up)
chain: MLFIKPADLREIVAFPAASDLVQCGFPSPAADYVEQRIDLNQLLIQHPSATYFVKASGDSMIDGGISDGDLLIVDSAITASHGDIVIAAVDGEFTVKKLQLRPTVQLIPMNSAYSPITISSEDTLDVFGVVIHVVKAMR
notes: UmuD, E. coli, full-length arms, three alanine mutations T14A L17A F18A; also called UmuD T14A L17A F18A; source: purified; not further stated
B2: UmuD S60A (natural protein, E. coli, UniProt P0AG11 1-139, looked up)
chain: B1 chain with A14T, A17L, A18F, S60A
notes: UmuD, E. coli, full-length 139 residues, non-cleavable active-site variant S60A; also called full-length UmuD-S60A; active site variant UmuD S60A; source: purified; expression from pSG5 as previously described [33, 34]
B3: UmuD S60A C24A A7C (natural protein, E. coli, UniProt P0AG11 1-139, looked up)
chain: B1 chain with A7C, A14T, A17L, A18F, C24A, S60A
notes: UmuD, E. coli, with the full-length arm; single cysteine moved from position 24 to position 7; S60A; also called UmuD A7C C24A S60A; source: purified; not further stated
B4: wild-type UmuD (natural protein, E. coli, UniProt P0AG11 1-139, looked up)
chain: B1 chain with A14T, A17L, A18F
notes: UmuD, E. coli, full-length, 139 residues; also called WT UmuD; full-length UmuD; source: purified; expression from pSG5 as previously described [33, 34]
B5: UmuD 8 S60A (domain or fragment, E. coli, UniProt P0AG11 8-139, looked up)
chain: DLREIVTFPLFSDLVQCGFPSPAADYVEQRIDLNQLLIQHPSATYFVKASGDAMIDGGISDGDLLIVDSAITASHGDIVIAAVDGEFTVKKLQLRPTVQLIPMNSAYSPITISSEDTLDVFGVVIHVVKAMR
notes: UmuD, E. coli, lacking the N-terminal 7 residues (Δ1–7) of the 139-residue full-length protein; non-cleavable active-site variant S60A; Plasmid pSG5 derivative; also called UmuD Δ1–7 S60A; source: constructed in pSG5, expressed and purified as previously described [33, 34]
B6: UmuD 18 S60A (domain or fragment, E. coli, UniProt P0AG11 18-139, looked up)
chain: FSDLVQCGFPSPAADYVEQRIDLNQLLIQHPSATYFVKASGDAMIDGGISDGDLLIVDSAITASHGDIVIAAVDGEFTVKKLQLRPTVQLIPMNSAYSPITISSEDTLDVFGVVIHVVKAMR
notes: UmuD, E. coli, lacking the N-terminal 17 residues (Δ1–17) of the 139-residue full-length protein; non-cleavable active-site variant S60A; Plasmid pSG5 derivative; also called UmuD Δ1–17 S60A; source: constructed in pSG5, expressed and purified as previously described [33, 34]

Molecular target: the molecule itself
Assay: cross-linking; 10 mM bis(maleimido)hexane (BMH), 40 μM protein, 10 min at room temperature; cross-linked dimers seen by Coomassie-stained SDS-PAGE
Settings: not given
In the case of B1, the percent cross-linked dimers is reported as 41%.
B2 gave a percent cross-linked dimers of 31%.
Work on B3 yielded a percent cross-linked dimers of 71%.
B4 showed a percent cross-linked dimers of 25%.
With B5 the percent cross-linked dimers was 32%.
B6 was tested, and the percent cross-linked dimers was 39%.

The binders below were run against T1, DNA polymerase III α subunit truncation α1–280 (E. coli, UniProt P10443 1-280) (assay: other fluorescence titration; intrinsic tryptophan fluorescence of α; UmuD titrated into a solution of α; equilibrium Kd). Settings: both partners purified.
T1 construct: α polymerase subunit of DNA polymerase III, E. coli, residues 1–280; also called N-terminal domain of α; PHP domain; source: described previously [21]
T1 sequence (P10443 1-280): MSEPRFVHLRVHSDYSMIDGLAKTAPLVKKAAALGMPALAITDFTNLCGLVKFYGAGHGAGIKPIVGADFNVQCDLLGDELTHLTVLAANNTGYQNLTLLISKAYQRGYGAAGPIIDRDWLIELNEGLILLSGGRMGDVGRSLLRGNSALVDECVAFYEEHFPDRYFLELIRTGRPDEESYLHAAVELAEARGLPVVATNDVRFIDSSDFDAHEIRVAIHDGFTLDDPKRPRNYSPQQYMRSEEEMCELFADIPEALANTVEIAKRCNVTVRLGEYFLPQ
Work on B5 yielded a Kd of 3.5 ± 0.8 µM.
B6 was tested, and the Kd was 5.9 ± 0.9 µM.

What follows are binders tested against T2, DNA polymerase III α subunit truncation α917–1160 (E. coli, UniProt P10443 917-1160) in the same assay as above. Settings: both partners purified.
T2 construct: α polymerase subunit of DNA polymerase III, E. coli, residues 917–1160; also called C-terminal fragment of α; source: described previously [21]
T2 sequence (P10443 917-1160): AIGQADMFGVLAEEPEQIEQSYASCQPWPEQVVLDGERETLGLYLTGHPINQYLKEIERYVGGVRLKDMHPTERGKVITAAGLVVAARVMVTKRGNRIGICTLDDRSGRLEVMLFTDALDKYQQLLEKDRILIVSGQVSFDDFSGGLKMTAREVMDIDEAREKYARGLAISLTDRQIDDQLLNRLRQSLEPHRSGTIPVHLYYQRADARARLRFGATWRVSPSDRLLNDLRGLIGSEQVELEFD
Binder B5 has a Kd of 0.2 ± 0.4 µM.
B6 gave a Kd of 3.6 ± 0.4 µM.

Each binder was assayed against T3, DNA polymerase III α subunit, full-length (E. coli, UniProt P10443 1-1160, in the FRET assay only: labeled with Alexa Fluor 647 C2-maleimide) in the same assay as above. Settings: both partners purified.
T3 construct: α polymerase subunit of DNA polymerase III, E. coli, full-length; Unlabelled in the tryptophan fluorescence titration; also called pol III α; full-length α; source: purified; as previously described [21]
T3 sequence (P10443 whole entry): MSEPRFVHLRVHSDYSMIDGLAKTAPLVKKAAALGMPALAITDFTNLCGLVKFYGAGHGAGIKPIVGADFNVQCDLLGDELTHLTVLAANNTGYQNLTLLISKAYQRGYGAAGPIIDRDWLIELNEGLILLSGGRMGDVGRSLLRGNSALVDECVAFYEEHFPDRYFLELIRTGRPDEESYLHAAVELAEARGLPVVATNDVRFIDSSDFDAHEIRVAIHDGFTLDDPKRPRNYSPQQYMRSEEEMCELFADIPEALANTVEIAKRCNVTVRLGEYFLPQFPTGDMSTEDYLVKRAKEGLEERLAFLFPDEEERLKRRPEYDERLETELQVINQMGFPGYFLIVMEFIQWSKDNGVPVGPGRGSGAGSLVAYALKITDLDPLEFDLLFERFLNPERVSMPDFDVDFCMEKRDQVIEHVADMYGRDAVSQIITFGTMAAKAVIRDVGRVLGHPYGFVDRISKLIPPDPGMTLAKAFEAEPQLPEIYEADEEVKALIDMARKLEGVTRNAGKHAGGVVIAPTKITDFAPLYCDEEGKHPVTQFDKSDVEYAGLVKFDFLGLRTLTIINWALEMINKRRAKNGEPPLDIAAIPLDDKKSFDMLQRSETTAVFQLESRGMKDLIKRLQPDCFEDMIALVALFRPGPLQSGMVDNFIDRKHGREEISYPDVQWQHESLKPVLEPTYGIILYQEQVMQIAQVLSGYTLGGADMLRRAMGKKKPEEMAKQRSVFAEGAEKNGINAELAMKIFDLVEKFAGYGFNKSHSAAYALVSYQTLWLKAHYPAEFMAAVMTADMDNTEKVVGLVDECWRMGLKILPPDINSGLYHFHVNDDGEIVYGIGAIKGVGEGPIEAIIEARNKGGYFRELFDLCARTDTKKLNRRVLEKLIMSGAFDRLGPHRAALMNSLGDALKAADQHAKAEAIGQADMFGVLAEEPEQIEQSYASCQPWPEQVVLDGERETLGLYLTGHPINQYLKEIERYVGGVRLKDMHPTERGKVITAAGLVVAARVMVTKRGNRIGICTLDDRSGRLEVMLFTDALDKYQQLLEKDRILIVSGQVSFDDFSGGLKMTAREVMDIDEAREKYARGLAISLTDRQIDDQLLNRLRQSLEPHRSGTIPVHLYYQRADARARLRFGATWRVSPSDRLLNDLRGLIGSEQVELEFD
B5 showed a Kd of 8.1 ± 0.9 µM.
B6 showed a Kd of 12.2 ± 0.2 µM.
